Test results reported in the DeepSol protein solubility set.

Assay: soluble on expression in E. coli; label from the status in PepcDB or PDB records

Soluble on expression in E. coli, not soluble:
MGSDKIHHHHHHMDEIEKSLQNWGQQLENVHLPRWHELPDIELYMDQVITLIEKYLSPLITLEKHTLLTSSMVNNYVKHGLIPAPVKKRYNQKHLAFLIAITLLKQVLTLPEIKQGILFQGATVGIREAYNLFCQEQERAIYVIAAQAQEKEVQAKSQEPMGIEYLAVKAATMSFATKMFSEKVIELEQEYLKEMDEMTHE
MGSDKIHHHHHHMDGKVMAGTRIEKVMANIRQRITSRSLVPGARLPSVRALAKTMQLSTSTIVEAYDRLVADGTISSRPGSGFFVAGPLAPLSLADIEPRLDRAVDPLWVSRQALDDGSALAKPGCGWLPASWMPQEALRRAMRGLARADDALLTDYGSPMGLLPLRQLLSRRLAEHGVQAGASQIMLTDSGTQAIDLLCRFLLQPGDTVVVDDPCYFNFHALLRAHRVKIVGVPYTPAGPDLPLFEQALKEHQPRLYITNSAIHNPTGARLSAVSAHRLLMLAEQPGLTIIEDDIFADFETQAAPRLAAFDGLNRVVQIGSFSKTLSASVRCGFIAAPRAWVEALTDLKIATAFGGTHFSAALVLSLLTDGSYRKHVEALRQRLAAAVPEAATRLRSIGCMPWIEPQAGMFLWCRLPEGTDAADVAQRALARQVVLAPGNVFSSSQNASGFMRFNVSQMVGPQVMTVLADALR
MGSDKIHHHHHHMDHLPPLRLLVTFEAISRHGSMRDAAQRLNVTQPAVSQALKALEDHVGVALFDRSVRPARLTDAGEMLSRAVREGLGRIAATLEDIRALHAIGERQVTVSCTLGMATYWLMPKLPMFYADYPELTVNVQAPATDLPVLSPGIDVALRYGRGGWREGRTEKLFAEVICPVGAPALVERLLAEGATLAEAPLIHVRNPHNDHWAGWEDYLQARGIQRPRGGGQIFNNYVQAAQAIYDGRGLMLGWRSITGQAERDGALRAWPDGALDLGTSYFVTMPTTPSQDTLLFVDWVRKAAATV
MGSDKIHHHHHHMDIKLKDFEGPLDLLLHLVSKYQVDIYEVPITEVIEQYLAYIATLQAMRLEVAGEYMLMASQLMVIKSRRLLPKVVEQIDPEDDPEMDLLDQLEEYRKFKLLSEKLGEQHDERANYFSKPKLDLIYDDVQLAKDKTIIDIFLAFSKVMAEKQASLRQSHATIARDEYKIEDMMDFVRSRFETGPRLELRQLFQESQDVNEMITIFLATLELVKVHEIVLEQTETFGDIYLVRSEDESLS
MGSDKIHHHHHHMDIREKKTPPTLAPGQTSNPATSLPPRTVEGLRDLVVSIGRDQAEVKLGAKALTVLAHLVERPEEVAVRTITDLANSLDVNASTLTRLATRLGFEGFAEFQGVFRNSMAQRHRHFYSQQAERLVGADNTGMPGGVSPEVGAVVQLAHESIQNVERFVARLSAEELRGAAELLAEAPRVRVHGLRQFSALASFLCYGLSMIRSDVGLLDAHGLGVAEGLAQLQRGDVVVVMSVAPYTRSVAEAAAAAAESGLTVIAITDTSASPLAAAARHAFFIPHESSFFSNSMGAYLIFCEGLLNLAATKLGKRSLRALARREQMIAALDIETE
MGSDKIHHHHHHMDITLFKTLLKVAAIGNISKAAAVLCVTQSAVSRRLKQLEDHIGKPLLIRSGNAVRPTEAGQFVLAKAQQIVDLESQIVDKLNVNEPKQRISLCCTPAFGIGRLPSIVSAFMADNAESADLNFVFNMPEQALEGIENGRFDLAIIEHCDDLNMAGHRGYPLPDDEMIFLSAPSLGIDSPAPSIEQLFDKRLYLKNEQGCARRFLDKNLALTGHSITEFANIIYFDDLQFIMREVLAGKGISFVPIGLVVDELCRHTLMAHRIADFDHFYPRTIILGRRAPSPLLLSFINTIYIAFGMPCPSIFHTEAPFPPEGFPESL
MGSDKIHHHHHHMDLDRIKGEIVAFVEGRKSEFAAIAEDLYLHPETGLNEVRSSALLADFLEREGFRVERGIAGLPTAFRAETGEGGPVIAFMAEMDALPVMGHACGHNVIAAAAVGAATALRSILPPDAARIVVLGTPAEEMGIGKVDMIANGAFDGVEFALMVHPSSRRYVIKHYLGLARVRFTFFGKPAHAAAYPEEGINALDGVIQTFNGISALRQQLRQDVRVHGIITEGGVAPNIIPERASAHFYVRADDLAELERAKARVLACAEGAALATGCRLQVDADPRIMAPLKVNRIFSDLYSAQLAYLDLQESENQPDKNKGSSDIGNVSQIVPTIHPHVPIGDGINIHSEAFARATVSGKGKAAVAEGATALALTAAELAARPDIREEIWREFRS
MGSDKIHHHHHHMDLEEQKKAVIEKLIREGYIKSKRVIDALLKVPREEFLPEHLKEYAYVDTPLEIGYGQTISAIHMVGMMCELLDLKPGMKVLEIGTGCGYHAAVTAEIVGEDGLVVSIERIPELAEKAERTLRKLGYDNVIVIVGDGTLGYEPLAPYDRIYTTAAGPKIPEPLIRQLKDGGKLLMPVGRYLQRLVLAEKRGDEIIIKDCGPVAFVPLVGKEGFQG
MGSDKIHHHHHHMDMNQGGLISLSPHAQVLLRPEGIQFGLDSANAGIFAAPESLIVAIVQVLRGFWQPIAKTTAIEQLTEAGLQPVAARGLIDDLLHHRVLSIVERNLTVAVGGFGPLVAPIKAVLGCAGISVVQAHTIQRCMTLESLLSREVPLIWINSTPSFSHIAQELVEVKTMIPVGLMDNHAIIGPVRIDGRGPCGLCTDLYRSDADPQWPALLKNATAPLTAPAALTYATAARVTRLVEQLSEPRQRVTVTAGLVIRVSSDGELSSEIMSPHSRCPLCWSSRWDCDPLTGTEQAFLADLGQNVLL
MGSDKIHHHHHHMDMQQLKPSREHDAPLYLQLYRRYRDAIIARKLHPGDRVPSVRSLASELNLARGTVEMAYQMLASEGYFLTRGPAGTIVSPQLEKLTESGYSTTSLSQIPSRPQIETAQVQPFQLGLPALDAFPRKTWARLAGHNLRTLDTAAMISPDPAGYEPLRRAIATYLGISRGITCTHEQVFITAGYRGALELVCRTLLQPGDIGWFEDPGYIFARQFLARAGMHLEPVPVDEEGLNVDIGQQRAAEARFAVVTPTHQSPMGMALSLPRRLQLLEWASHHRSWIIEDDYDSEFRYHGRPLPALKSLDRDGRVLYTGTFSKVLFPGLRLAYLVVPEPQIERFRDTANHFCCAGSILPQATVANFMEQGHFARHLRRMRSLYAIRRGYLVDELLQALGSHLTVQPQAGGIHVLATLTARGNDQSLAAAAQSHGLAIQALNDWRTSKTSRGGLLMGFTNVTEPAMAKALVHRLAAAIGLS
MGSDKIHHHHHHMDNPRSIRVHASELEVGRPLSWAVYDENGVLLLNKGMAPATEAQIIAMLQRGVFRQPGSGVGAGAAGSKSAIPPMGLGPSEDESKTRLTGDPIPFDDLAMQPGEVLQLHPALEVVAADVPAVLIGYLKDRAIVVATPMVSGKPLLVKDGTLFNIKTFSGTSLYNFRTRVLASHSHPMPHLHLEYPRLVCQTKIRKALRALTDLPATLLNPASGDSRDVVLKDLSVGGAKIVLPEPVTCAKGDPFVVGFRIKIGDDLEEAIRADAVMCSAESRTGKETTVHTMSVQFKELPKSTSLAIMALVYRLQLRKG
MGSDKIHHHHHHMDREIFVSYSVSANSIAGWVAYGGSESFHDMSRGILAARIGIPRLLRMFRKFCIKSSWYVPGIVMETFPDEVRAIYADGHELGTHGYLHEYAPSMSYDQEERVIAKTAELVKDITGHNPYGHLPSQWEESVNTMRILMNHGYKYARGLEDDDFHPFYASTGRSWPRVDYSKLPETWMKPMNLGEKIDFVEIPINWFLNDGTYFNFNKHVPGKRPMSLSEVLENWKAAFDYVYREYEYAIFPVNIHPDTSGNPEVQIFHEKFISYILEHNGASFVSDSFIAEDFRKRYPFPHEFREKVDL
MGSDKIHHHHHHMDRIQEMTLFAALAGQTSFTGVARHVGLSTATVTRAVASLESRLGILLVVRTTRNMRLTKAGQRFAEDCRRLLADLSEAENAAAGVHALPAGTLTVTAPQMFGALHVTPVLTRFLSEYPAVDIRAILVDRVVSMLDEGVDVAVRIGALRDSSLTAIRVGSVRRMVCASPVYLTQHGTPRHPDDLQQHATISTSAPERPPHWAFRVDDQDYSVNVASRLSLTSFQASINAALQHWGLTQVPHYQIREHLHNGRLVCVLEDFEIAPEPVHVVYSEGRRGSSRVRSFVDFCVSALREDLQFEAAG
MGSDKIHHHHHHMDRVQAMRVFVAVVDCGGFTRAAQQLQLPRATVSSAVQQLEAQLGARLLHRTTRRVQLTLDGGTFYERCQQLLADFDELESLFSQQGASPRGKLRIDVPGPIGRQVLAPALPEFFRLYPGIELELGVTDRPVDLIQEGVDCVIRVGALAESRLVARRIGMLPQGNYASPDYLAAFGAPASPDALAGHRAVNYASPSTGKVFAWEYLQDGERRELALQSLVSVNQVESYIACALAGLGMIQLPRYDAEPHVAAGALVEVLADWPPPAMPVSVLYPHRRHLSRRVQVFVEWAGALLRERLRLGA
MGSDKIHHHHHHMDSAYVFDSEQATKLLMKNYELVKTSGVSFIDKRIRFLIARLFAGNNEVVDPEEFSEINKEIKRQLGMFTALNGNVRASLVGLLMANDNASRESVQQVIANYNTLIQAGFQRTEYTYFAAYLLLESENPKKTARKAKTIHQLFKKDHPFLTKSEDVTTAVFLANLPEENTTKLAEITEYYFQEFAAKGFRKNDSLQFLATTGTLLYGEKDSKFIRRVDNIVEELRQKGIKVKPLHYSSIGILAFVMDARKIDSGLVNLIDELQQQPGLRFGREFVTALAISLYTEKQSGQMSKEQLEGLMVNVHILIAMEQAAAVSAAAAASAAAASS
MGSDKIHHHHHHMDTLFTINACKTFGCRNLGLPSAAEYHFPNFRLGYPALYCAACGSYPPLFNEREFRPWLAAYLTDHARRYGYFCPVCYQRDIIRYGRNPQGTQRLQCRHCKKVWTPKFPHIAPIEAPRRICSVPLIAPFQGNAAGQKLYFLLSFDAVRGNVIHLTSNFTPFAVGESLRYRWRGGQADREETDDIIQRISLTEMRFLQRSQFDEIQYGSAMQKRHARGNILRPVIAAHGHFKLLSQRFPEVKTHVIAHECFLRGAAIVAWAPLFRQRQGDLWYVEEEIRNPASPAPWQLLGKTHHGWWQNSWQRWTQEENQKMVCRLAGTVEENAFLPDLAASRRFTIWLKNRPAFAQSALYSAGRVTQIVASLVQEYNATLTAAAPGG
MGSDKIHHHHHHMDVNEIRENAKKLMELMMLDKPFVAVKLAKSKEEIPEGYETLDEEKRHCEMIQMARLERKKLYATVDKHLCKGGAYAMGVFRNPPEPLATGKLYVKLGNFKDEEAAKKTVDAIPKVEEEIYATVYAPLDETDFIPDSIVFIGEPLYALRLVQAILYHKGGRFQADFSGIQSLCADAVAAVYTRKAPNMTLGCNGSRKYAGIKPEEVVVAFPPEKLKDIVEAIEHFRQVWTCGH
MGSDKIHHHHHHMDVWKVLGRYSNVLVLSKKNSILILEINGKAPKPGESVRVWNNRVMTGKELKAKLLAHFDEELSLKVLKVPGLLEFLHDISRGFDKKYVHFVKLFVKHLVPSRFLKMNNEEKKIIMKSFPEVFESGPSSVRIRFSVKSFFEYVQKNFPINRNINEEALRRTVTLKRPILSTEEYDVYQMNEPLSKGFAGKNYMALPLSGKYLIVVFRRRNFPFVEFKLKEEPDLTFFEDFVNDKVAVEKRENGWVLIWKDREMMEFELPDKELLPRPEKLVDDDLLDAVFLLNSLLEENVRFASMPSFGVQEMWWEKDNNRVILVVNTVRFGRVVADVILEGRSLSVRFYAEKNSEELSAHSEELQKEFERLGLIAHVFFLRKDPMNWEGFNAYG
